How the values were obtained:
[1] = system: PC3 (Human Prostate Cancer Cell Line) tumors; test: PC3 mouse tumor model; format: in vivo, NCr nude mice; details: PC3, 2 mg/kg twice per week
Description: Briefly, 5×10^6 PC3 cells in 100 μl of growth factor-reduced Matrigel (BD Biosciences) were injected subcutaneously into the flanks of 6-8 week old male NCr nude mice (Taconic, Hudson, N.Y.). After tumor volumes reached an average of about 200 mm^3, mice were randomized into groups for treatment. […] Tumor volumes were measured twice per week over the course of the experiment and tumor weights were measured upon excision of tumors at the conclusion of the experiment. Averages (mean+/−standard deviation) of tumor weight and growth were calculated for each treatment group. Percent decrease of tumor weight and growth were calculated from comparison to Fc protein measurements.

[2] = system: Tie-2 phosphorylation (Ang-2-mediated) in HUVECs; test: Inhibition of Ang-2-mediated Tie-2 phosphorylation in FOXO1-adenovirus infected HUVECs; format: cell-based, human; details: antibody 0.5 μg/ml
Description: Further, the inventors have shown that infection of HUVECs with an adenovirus encoding FOXO1 results in expression and secretion of Ang-2, followed by activation of Tie-2 phosphorylation (Daly et al. 2006 PNAS 103:15491).
Anti-Ang-2 antibodies were tested for their ability to inhibit Tie-2 phosphorylation. Briefly, 7×10^5 HUVECs (Vec Technologies, Rensselaer, N.Y.) were plated in 6 cm cell culture dishes in 3.5 ml of MCDB131 Complete medium (Vec Technologies, Rensselaer, N.Y.). The following day, the cells were washed with Opti-MEM (Invitrogen Corp., Carlsbad, Calif.) and fed with 2 ml of Opti-MEM. […] Cells were then washed with MCDB131 and fed with 2 ml of MCDB131 containing anti-Ang-2 antibodies at a concentration of 0.5 μg/ml. At twenty hours post infection, cells were lysed and subjected to Tie-2 immunoprecipitation as described by Daly et al., Proc. Natl. Acad. Sci. USA 103:15491-15496 (2006). Immunoglobulin was collected on protein A/G beads (Santa Cruz Biotechnology, Santa Cruz, Calif.) for one hour. Beads were washed with cold lysis buffer and resuspended in SDS sample buffer for analysis by western blot with antibodies specific for phosphotyrosine (Millipore, Billerica, Mass.) or Tie-2. Signals were detected using HRP-conjugated secondary antibodies and ECL reagents (GE Healthcare, Piscataway, N.J.). X-Ray films were scanned and the phospho-Tie-2 and Tie-2 signals were quantified using ImageJ software. The phospho-Tie-2/Tie-2 ratios were used to determine the % inhibition for each anti-Ang-2 antibody (i.e. Percent inhibition=Reduction in phospho-Tie-2/Tie-2 as compared to control).

[3] = system: COLO 205 (Human Colorectal Adenocarcinoma Cell Line) tumors; test: COLO 205 mouse tumor model; format: in vivo, mice; details: COLO 205, NCr nude mice, 4 mg/kg intraperitoneal twice per week; for Avg Tumor Weight: approximately two weeks
Description: Briefly, 2×10^6COLO 205 cells in 100 μl of serum-free medium were injected subcutaneously into the flank of 6-8 week old male NCr nude mice (Taconic, Hudson, N.Y.). After tumor volumes reached an average of about 150 mm^3, mice were randomized into groups for treatment with antibody or Fc protein. Mice in each treatment group were administered an anti-Ang-2 antibody or Fc protein at a concentration of 4 mg/kg via intraperitoneal injection twice per week for approximately two weeks. Tumor volumes were measured twice per week over the course of the experiment and tumor weights were measured upon excision of tumors at the conclusion of the experiment. Averages (mean+/−standard deviation) of tumor weight and growth were calculated for each treatment group. “Avg. Tumor Growth” represents the average growth from the time of treatment initiation (when tumors were approximately 150 mm^3). Percent decrease of tumor weight and growth are calculated from comparison to Fc protein measurements.
A similar experiment was carried out to assess the effect of H1H685P, in particular, on COLO 205 tumor growth. Briefly, 2×10^6 COLO 205 cells in 100 μl of serum-free medium were implanted subcutaneously into the right hind flank of 9-11 week-old male SCID CB17 mice. When the tumors reached ˜125 mm^3, mice were randomized into 5 groups (n=7-8 mice/group) and treated twice per week with Fc protein (15 mg/kg), H1H685P (5 or 25 mg/kg) or Control II (5 or 25 mg/kg) for a period of 19 days. Tumor volumes were measured twice per week over the course of the experiment and tumor weights were measured upon excision of tumors at the end of the experiment. Averages of tumor weight and growth from the beginning of treatment were calculated for each group. Percent decrease of tumor weight and growth are calculated from comparison to the Fc control group.
To determine the effect of combining an anti-Ang-2 antibody with a VEGF inhibitor on the growth of COLO 205 xenografts, 2×10^6 cells were implanted subcutaneously into the right hind flank of 6-8 week-old female SCID mice. When the tumors reached an average volume of ˜350 mm^3, mice were randomized into 4 groups (n=6 mice/group) and treated with: human Fc protein (7.5 mg/kg), H1H685P (5 mg/kg), VEGF Trap (see U.S. Pat. No. 7,087,411) (2.5 mg/kg) or the combination of H1H685P+VEGF Trap. Mice were given a total of 3 doses over 10 days of treatment. Tumor volumes were measured twice per week over the course of the experiment. Averages of tumor growth from the start of treatment (mean+/−standard deviation) were calculated for each treatment group. Percent decrease of tumor growth was calculated from comparison to the Fc control group.
To test the effect of H1H685P in combination with a chemotherapeutic agent on tumor growth, 2.5×10^6 COLO 205 tumor cells were implanted subcutaneously into the right hind flank of 8-9 week-old male SCID mice. When the tumors reached an average volume of ˜150 mm^3 (day 17 after implantation), mice were randomized into 4 groups (n=5 mice/group) and treated as follows: the first group was treated sc with 15 mg/kg hFc and intraperitoneally (ip) with 5-FU vehicle; the second group was treated sc with 15 mg/kg of H1H685P; the third group was treated ip with 75 mg/kg of 5-FU; the fourth group was treated with the combination of 15 mg/kg H1H685P sc plus 75 mg/kg 5-FU ip. Mice received a total of three treatments, administered every 3-4 days. Tumor volumes were measured twice per week over the course of the experiment. Average (mean+/−standard deviation) tumor growth from the beginning of treatment until day 38 was calculated for each group. Percent decrease of tumor growth was calculated from comparison to the control group.

Molecule	% Decrease in Tumor Growth [1]	% Decrease in Tumor Weight [1]	Avg Tumor Growth [1]	Avg Tumor Weight [1]	Inhibition of Tie-2 phosphorylation [2]	% Decrease in Tumor Growth [3]	% Decrease in Tumor Weight [3]	Avg Tumor Growth [3]	Avg Tumor Weight [3]	Inhibition of Tie-2 phosphorylation (in words) [2]
H1M749N: anti-Ang-2 antibody, HCVR/LCVR SEQ ID NOs 314/322 (antibody, V domains shown) VH: QVQLVESGGGVVQPGRSLRLSCAASGFTFSSYGMHWVRQAPGKGLEWVAVIWYDEFNKYYADSVKGRFTISRDNSKNTLYLQMNSLRAEDTAVYYCARERESGYSYGFDYWGQGTLVTVSS VL: EIVMTQSPATLSVSPGERATLSCRAGQSVSSNLAWYQQKPGQAPRLLIYGASTRATGIPARFSGSGSGTEFTLTISSLQSEDFAVYYCQQYNNWWTFGQGTKVEIK	54%	31%	220 ± 261 mm^3	0.383 ± 0.275 g	++ (50-75%)	39%	29%	449 ± 169 mm^3	0.603 ± 0.142 g	–
H2M742N: anti-Ang-2 antibody, HCVR/LCVR SEQ ID NOs 386/394 (antibody, V domains shown) VH: DVQLLESGGDLVQPGGSLRLSCEASGFTFRNYVMIWVRQAPGKGLEWVSGISNSGGTTHYTDSVKGRFTISRDNSKNTLYLQINSLRAEDTAVYYCAKGYLDTSLIEGNWFDPWGQGTLVTVSS VL: NIVMTQSPLSLPVTPGEPASISCRSSQSLLHSNGFNYLNWFLQKPGQSPQLLIYLGSNRASGVPDKFSGSGSGTDFTLNINRVEAEDVGIYFCMQTLQTPLTFGGGTKVEIK	–	35%	220 ± 102 mm^3	0.407 ± 0.076 g	++ (50-75%)	42%	32%	427 ± 92 mm^3	0.576 ± 0.057 g	–
H1M724N: anti-Ang-2 antibody, HCVR/LCVR SEQ ID NOs 266/274 (antibody, V domains shown) VH: QVQLVESGGGVVQPGRSLRLSCAASGFTLSNYGMHWVRQAPGKGLEWVAVIWHDGSNTYYADSVKGRFTISRDNSKNTLYLQMNSLRAEDTAVYYCTREGLDFWSGYYPNWFDPWGQGTLVTVSS VL: DIQMTQSPSSLSASVGDRVTITCRASQGIRNDLGWYQQKPGKAPKRLIYAASNLQGGVPSRFSGSGSGTEFTLTISSLQPEDFAAYYCLQHNIYPLTFGGGTKVEIK	–	–	–	–	+++ (75-100%)	54%	37%	336 ± 125 mm^3	0.531 ± 0.103 g	Especially robust inhibition

Reference: US9926369B2, “Methods for treating hepatocellular cancer by administering an anti-Ang-2 antibody” (Regeneron Pharmaceuticals, Inc., priority 2009, dated 2018)
